The values that follow are results of earlier work, collected in article PMC13242166.

The series concerns the target TRH1 receptor (Homo sapiens) (UniProt P34981). The series can be described thus: radioligand binding.
UniProt P34981, sequence (P34981 whole entry): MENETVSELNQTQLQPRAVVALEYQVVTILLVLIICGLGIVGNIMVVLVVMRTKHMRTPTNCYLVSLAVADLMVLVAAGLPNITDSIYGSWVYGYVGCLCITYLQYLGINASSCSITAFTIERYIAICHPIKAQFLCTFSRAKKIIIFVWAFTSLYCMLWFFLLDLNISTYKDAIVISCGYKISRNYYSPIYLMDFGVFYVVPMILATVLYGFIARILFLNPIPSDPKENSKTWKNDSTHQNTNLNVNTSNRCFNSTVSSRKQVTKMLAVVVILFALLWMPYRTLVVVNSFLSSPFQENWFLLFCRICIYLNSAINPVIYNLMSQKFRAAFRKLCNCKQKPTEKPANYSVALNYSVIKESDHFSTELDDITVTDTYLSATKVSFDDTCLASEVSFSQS

Regarding TRH (from UniProt P20396), the dissociation constant Kd (as a rule, the constant that tells how readily two partners part at equilibrium) was 13 nM.
